According to PMC10209032, “Molecular determinants for Rous sarcoma virus intasome assemblies involved in retroviral integration”:

Experiments:
[1] = molecular target: Rous sarcoma virus integrase IN (1–278), C-terminal tail truncation (Rous sarcoma virus (Prague A)); test: cryo-EM structure; STC intasome assembled from IN (1–278) 35 μM and the viral/target DNA substrate 10 μM by dialysis, purified by SEC in 20 mM HEPES pH 7.5, 650 mM NaCl, 1 mM TCEP; single particle, C2 symmetry, 3.36 Å; the IN oligomer stands on two DNA substrates
[2] = molecular target: Rous sarcoma virus integrase IN (1–286) R244A (Rous sarcoma virus (Prague A)); test: not stated; oligomeric state of free purified IN proteins, without DNA; shown in Fig. S5, method and conditions not given
[3] = molecular target: Rous sarcoma virus (RSV) integrase, WT full-length IN (1–286 aa), Prague A (Rous sarcoma virus (Prague A)); test: as above
[4] = molecular target: Rous sarcoma virus integrase IN (1–286) Y246A (Rous sarcoma virus (Prague A)); test: as above
[5] = molecular target: Rous sarcoma virus integrase IN (1–286) R244E (Rous sarcoma virus (Prague A)); test: as above
RSV IN (1-278) = molecular target: T1, RSV IN (1-278) (Rous sarcoma virus, Prague A, UniProt P03354 1281-1558); test: cryo-EM (3.36 A); SEC; Zn2+ and Mg2+ listed in structure table; octameric STC; STC (IN 1-278, cryo-EM prep): 35 uM IN + 10 uM DNA in 20 mM HEPES pH 7.5, 1 M NaCl, 20% glycerol, 1 mM TCEP, dialyzed to 0.125 M NaCl, solubilized at 0.75 M NaCl; SEC in 20 mM HEPES pH 7.5, 650 mM NaCl, 1 mM TCEP. Mutant STC 18 h at 4 C; CSC with MK-2048 18 h at 18 C (buffer not in material); settings: protein: recombinant; chain copies: 8; branched; S2 pairs with S1[1-20] leaving 5' AA unpaired; S3 pairs with S1[27-42]; self-complementary S1[21-26]; GTGCAC pairs two copies; 2 copies of each strand in STC
T1 sequence: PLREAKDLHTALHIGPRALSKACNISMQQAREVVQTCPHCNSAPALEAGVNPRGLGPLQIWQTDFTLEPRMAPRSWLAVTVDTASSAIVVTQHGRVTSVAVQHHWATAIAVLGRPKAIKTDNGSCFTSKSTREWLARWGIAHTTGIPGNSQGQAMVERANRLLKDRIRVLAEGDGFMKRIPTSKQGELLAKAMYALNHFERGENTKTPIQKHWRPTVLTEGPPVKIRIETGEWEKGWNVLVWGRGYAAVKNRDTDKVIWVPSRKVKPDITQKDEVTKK

Rous sarcoma virus integrase IN (1–278), C-terminal tail truncation (enzyme)
stoichiometry N [1]: 8

Rous sarcoma virus integrase IN (1–286) R244A (enzyme)
stoichiometry N [2]: 2

Rous sarcoma virus (RSV) integrase, WT full-length IN (1–286 aa), Prague A (enzyme)
stoichiometry N [3]: 2

Rous sarcoma virus integrase IN (1–286) Y246A (enzyme)
stoichiometry N [4]: 2

Rous sarcoma virus integrase IN (1–286) R244E (enzyme)
stoichiometry N [5]: 2

B1: RSV STC substrate (viral/target DNA) (mixed)
DNA 1: GAGTATTGCATAAGACAACAGTGCACGAAAGAAGAAGACACT
DNA 2: AATGTTGTCTTATGCAATACTC
DNA 3: AGTGTCTTCTTCTTTC
binding result (RSV IN (1-278)): binds
